Source: publication doi:10.1101/2025.09.02.671137 (bioRxiv, 2025)

T1: Cdc13 (Saccharomyces cerevisiae, UniProt P32797 1-924)
T1 sequence: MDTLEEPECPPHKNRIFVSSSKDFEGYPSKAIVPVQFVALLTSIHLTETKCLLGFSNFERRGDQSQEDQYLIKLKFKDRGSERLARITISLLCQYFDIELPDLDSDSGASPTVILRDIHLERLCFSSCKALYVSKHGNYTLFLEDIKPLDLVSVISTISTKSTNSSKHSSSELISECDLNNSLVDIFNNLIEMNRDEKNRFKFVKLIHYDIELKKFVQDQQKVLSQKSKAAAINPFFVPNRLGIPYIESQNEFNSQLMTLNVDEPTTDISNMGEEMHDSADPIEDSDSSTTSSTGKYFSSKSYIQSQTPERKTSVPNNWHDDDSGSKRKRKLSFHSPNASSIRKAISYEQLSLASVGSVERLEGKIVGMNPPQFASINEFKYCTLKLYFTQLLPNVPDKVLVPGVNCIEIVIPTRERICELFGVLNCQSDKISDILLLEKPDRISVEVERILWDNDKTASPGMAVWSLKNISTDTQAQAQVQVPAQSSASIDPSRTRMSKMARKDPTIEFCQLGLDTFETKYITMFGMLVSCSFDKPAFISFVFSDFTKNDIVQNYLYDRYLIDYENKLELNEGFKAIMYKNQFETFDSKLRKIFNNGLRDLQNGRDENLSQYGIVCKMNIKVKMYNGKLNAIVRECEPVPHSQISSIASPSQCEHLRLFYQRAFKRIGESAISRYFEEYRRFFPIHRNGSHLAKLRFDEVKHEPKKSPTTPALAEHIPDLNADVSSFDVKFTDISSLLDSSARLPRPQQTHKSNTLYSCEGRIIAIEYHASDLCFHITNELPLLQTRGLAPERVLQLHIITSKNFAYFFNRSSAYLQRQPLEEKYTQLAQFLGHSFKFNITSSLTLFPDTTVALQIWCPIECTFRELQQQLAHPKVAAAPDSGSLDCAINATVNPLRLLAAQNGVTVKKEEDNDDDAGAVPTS

T2: Cdc13-K504E (Saccharomyces cerevisiae, UniProt P32797 1-924, K504E)
T2 sequence: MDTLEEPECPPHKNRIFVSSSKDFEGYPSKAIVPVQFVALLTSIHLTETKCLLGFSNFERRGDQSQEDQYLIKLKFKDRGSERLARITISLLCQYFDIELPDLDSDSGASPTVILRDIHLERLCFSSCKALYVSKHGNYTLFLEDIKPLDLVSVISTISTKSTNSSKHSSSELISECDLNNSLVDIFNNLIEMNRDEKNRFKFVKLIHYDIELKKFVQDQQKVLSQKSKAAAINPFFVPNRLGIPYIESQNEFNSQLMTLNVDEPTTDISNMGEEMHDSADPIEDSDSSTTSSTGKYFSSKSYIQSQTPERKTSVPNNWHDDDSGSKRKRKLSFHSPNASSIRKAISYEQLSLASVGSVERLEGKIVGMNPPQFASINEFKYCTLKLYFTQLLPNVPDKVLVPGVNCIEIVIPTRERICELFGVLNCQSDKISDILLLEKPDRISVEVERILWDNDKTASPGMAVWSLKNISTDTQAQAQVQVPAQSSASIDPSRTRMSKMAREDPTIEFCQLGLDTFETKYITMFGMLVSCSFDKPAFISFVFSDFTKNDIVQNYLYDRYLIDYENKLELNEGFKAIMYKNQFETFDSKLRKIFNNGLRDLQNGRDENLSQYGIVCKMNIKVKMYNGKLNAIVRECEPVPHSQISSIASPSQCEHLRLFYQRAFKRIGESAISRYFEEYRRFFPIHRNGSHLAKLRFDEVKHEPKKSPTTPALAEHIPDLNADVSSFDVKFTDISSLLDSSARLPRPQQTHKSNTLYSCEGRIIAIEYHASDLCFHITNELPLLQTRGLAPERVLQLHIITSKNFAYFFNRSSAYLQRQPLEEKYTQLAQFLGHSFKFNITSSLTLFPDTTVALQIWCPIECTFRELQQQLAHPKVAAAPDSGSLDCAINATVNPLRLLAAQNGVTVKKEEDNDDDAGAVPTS

T3: Cdc13-OB234 (Saccharomyces cerevisiae, UniProt P32797 341-924)
T3 sequence: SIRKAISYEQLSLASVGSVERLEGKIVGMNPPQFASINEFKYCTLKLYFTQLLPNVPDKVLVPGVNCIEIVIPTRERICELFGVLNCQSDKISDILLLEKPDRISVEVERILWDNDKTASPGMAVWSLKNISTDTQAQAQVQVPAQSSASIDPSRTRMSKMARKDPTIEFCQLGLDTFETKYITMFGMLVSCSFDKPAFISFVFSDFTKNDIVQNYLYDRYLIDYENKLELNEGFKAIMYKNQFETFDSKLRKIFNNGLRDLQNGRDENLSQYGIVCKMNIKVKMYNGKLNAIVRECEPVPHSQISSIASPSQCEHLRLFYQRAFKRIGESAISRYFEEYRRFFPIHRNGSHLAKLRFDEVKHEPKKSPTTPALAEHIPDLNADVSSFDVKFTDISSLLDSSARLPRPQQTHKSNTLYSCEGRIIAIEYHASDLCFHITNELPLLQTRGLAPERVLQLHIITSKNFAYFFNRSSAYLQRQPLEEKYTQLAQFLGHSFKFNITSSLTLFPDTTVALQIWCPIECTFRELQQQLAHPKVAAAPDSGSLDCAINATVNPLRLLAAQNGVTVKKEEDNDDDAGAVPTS


How the values were obtained:
Cdc13 [1] = target: T1, Cdc13; experiment: EMSA
Cdc13-K504E = target: T2, Cdc13-K504E; experiment: EMSA
Ku (Ku70-Ku80);Cdc13 = Ku (Ku70-Ku80);Cdc13 (Saccharomyces cerevisiae;Saccharomyces …, UniProt P32807;Q04437;P32797 1-602;1-629;1-924, |); experiment: EMSA
SEC = target: the molecule itself; experiment: SEC
Cdc13 [2] = target: T1, Cdc13; experiment: DNase I footprinting
Cdc13-OB234 = target: T3, Cdc13-OB234; experiment: DNase I footprinting
Cdc13 [3] = target: T1, Cdc13; experiment: EMSA; remark: listed apart in the source
RPA = RPA (UniProt P22336;P26754;P26755 1-621;1-273;1-122); experiment: EMSA
Sequence of RPA (P22336 whole entry, chain 1 of 3): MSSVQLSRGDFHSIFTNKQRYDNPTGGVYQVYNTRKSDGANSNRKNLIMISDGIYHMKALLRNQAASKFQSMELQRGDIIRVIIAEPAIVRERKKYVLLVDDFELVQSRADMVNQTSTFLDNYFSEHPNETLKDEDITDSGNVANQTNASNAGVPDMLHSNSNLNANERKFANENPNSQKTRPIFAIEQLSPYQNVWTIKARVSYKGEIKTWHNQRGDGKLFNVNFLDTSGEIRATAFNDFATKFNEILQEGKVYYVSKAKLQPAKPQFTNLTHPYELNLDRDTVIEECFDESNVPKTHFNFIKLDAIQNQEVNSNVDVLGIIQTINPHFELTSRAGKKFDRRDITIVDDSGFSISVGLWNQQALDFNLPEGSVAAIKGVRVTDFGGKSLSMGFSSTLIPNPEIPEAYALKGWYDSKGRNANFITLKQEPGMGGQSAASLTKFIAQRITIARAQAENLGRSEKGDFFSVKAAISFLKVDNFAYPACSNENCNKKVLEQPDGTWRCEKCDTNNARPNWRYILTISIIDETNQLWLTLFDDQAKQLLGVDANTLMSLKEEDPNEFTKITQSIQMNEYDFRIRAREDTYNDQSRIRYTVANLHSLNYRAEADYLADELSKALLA
Sequence of RPA (P26754 whole entry, chain 2 of 3): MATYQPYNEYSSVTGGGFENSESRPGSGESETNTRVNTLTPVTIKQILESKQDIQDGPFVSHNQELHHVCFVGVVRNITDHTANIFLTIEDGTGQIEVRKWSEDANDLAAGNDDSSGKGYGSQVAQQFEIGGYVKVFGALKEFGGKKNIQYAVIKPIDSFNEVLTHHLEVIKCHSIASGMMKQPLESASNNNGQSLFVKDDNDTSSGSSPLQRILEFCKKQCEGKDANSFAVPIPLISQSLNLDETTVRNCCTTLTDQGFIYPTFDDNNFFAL
Sequence of RPA (P26755 whole entry, chain 3 of 3): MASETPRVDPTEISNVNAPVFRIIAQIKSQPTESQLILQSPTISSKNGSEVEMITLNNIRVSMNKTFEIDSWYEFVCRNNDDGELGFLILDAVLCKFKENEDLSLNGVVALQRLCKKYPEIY

Sequence of Ku (Ku70-Ku80);Cdc13 (P32807 whole entry, chain 1 of 2): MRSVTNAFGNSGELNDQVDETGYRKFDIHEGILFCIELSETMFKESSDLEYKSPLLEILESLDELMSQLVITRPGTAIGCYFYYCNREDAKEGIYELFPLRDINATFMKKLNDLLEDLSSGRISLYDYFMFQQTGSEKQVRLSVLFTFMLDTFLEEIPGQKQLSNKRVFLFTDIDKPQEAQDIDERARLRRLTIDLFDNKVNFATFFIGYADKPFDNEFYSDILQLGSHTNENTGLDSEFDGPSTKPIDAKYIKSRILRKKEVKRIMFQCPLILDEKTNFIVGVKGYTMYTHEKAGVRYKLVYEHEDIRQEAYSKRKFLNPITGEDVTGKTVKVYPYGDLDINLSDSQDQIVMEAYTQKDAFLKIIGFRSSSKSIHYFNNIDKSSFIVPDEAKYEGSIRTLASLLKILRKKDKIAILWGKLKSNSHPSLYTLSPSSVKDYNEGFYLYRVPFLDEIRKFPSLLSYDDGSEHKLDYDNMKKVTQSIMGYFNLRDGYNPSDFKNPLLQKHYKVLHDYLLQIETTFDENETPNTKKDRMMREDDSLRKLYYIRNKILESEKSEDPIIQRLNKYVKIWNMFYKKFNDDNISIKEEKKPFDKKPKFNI
Sequence of Ku (Ku70-Ku80);Cdc13 (Q04437 whole entry, chain 2 of 2): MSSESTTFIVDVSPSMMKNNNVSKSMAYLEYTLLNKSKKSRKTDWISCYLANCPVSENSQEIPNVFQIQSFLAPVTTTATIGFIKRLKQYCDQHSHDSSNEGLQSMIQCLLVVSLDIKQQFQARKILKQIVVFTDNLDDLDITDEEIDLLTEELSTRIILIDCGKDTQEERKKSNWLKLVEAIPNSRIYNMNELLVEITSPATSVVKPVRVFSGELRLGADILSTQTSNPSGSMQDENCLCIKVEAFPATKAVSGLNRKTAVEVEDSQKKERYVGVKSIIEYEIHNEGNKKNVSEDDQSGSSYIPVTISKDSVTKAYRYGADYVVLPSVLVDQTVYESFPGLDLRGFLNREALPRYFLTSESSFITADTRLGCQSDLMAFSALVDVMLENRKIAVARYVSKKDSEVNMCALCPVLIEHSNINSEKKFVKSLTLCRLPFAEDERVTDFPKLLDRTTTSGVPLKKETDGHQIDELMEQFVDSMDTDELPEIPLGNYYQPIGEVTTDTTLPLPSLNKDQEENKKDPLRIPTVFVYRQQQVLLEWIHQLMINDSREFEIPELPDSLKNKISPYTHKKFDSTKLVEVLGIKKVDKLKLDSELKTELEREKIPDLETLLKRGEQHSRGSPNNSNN

Binder	Kd (Cdc13 [1])	binding result (Cdc13-K504E)	other results
Tel7 (dsDNA) DNA 1: ATAATGATAAGACGTAGAGTGGGTGTGTGTGTG DNA 2: ACACCCACTCTACGTCTTATCATTAT	~20 nM	–	–
Tel22 (dsDNA) DNA 1: ATAATGATAAGACGTAGAGTGGGTGTGTGTGTGGGGTGGTGTGTGTGG DNA 2: ACACCCACTCTACGTCTTATCATTAT	< 2.5 nM	binds	binding result (Ku (Ku70-Ku80);Cdc13): binds
Tel14 (dsDNA) DNA 1: ATAATGATAAGACGTAGAGTGGGTGTGTGTGTGGGGTGGT DNA 2: ACACCCACTCTACGTCTTATCATTAT	~5 nM	binds	–
Cdc13 (recombinant full-length, Cdc13-Flag) (natural protein, S. cerevisiae, UniProt P32797 1-924, looked up) MDTLEEPECPPHKNRIFVSSSKDFEGYPSKAIVPVQFVALLTSIHLTETKCLLGFSNFERRGDQSQEDQYLIKLKFKDRGSERLARITISLLCQYFDIELPDLDSDSGASPTVILRDIHLERLCFSSCKALYVSKHGNYTLFLEDIKPLDLVSVISTISTKSTNSSKHSSSELISECDLNNSLVDIFNNLIEMNRDEKNRFKFVKLIHYDIELKKFVQDQQKVLSQKSKAAAINPFFVPNRLGIPYIESQNEFNSQLMTLNVDEPTTDISNMGEEMHDSADPIEDSDSSTTSSTGKYFSSKSYIQSQTPERKTSVPNNWHDDDSGSKRKRKLSFHSPNASSIRKAISYEQLSLASVGSVERLEGKIVGMNPPQFASINEFKYCTLKLYFTQLLPNVPDKVLVPGVNCIEIVIPTRERICELFGVLNCQSDKISDILLLEKPDRISVEVERILWDNDKTASPGMAVWSLKNISTDTQAQAQVQVPAQSSASIDPSRTRMSKMARKDPTIEFCQLGLDTFETKYITMFGMLVSCSFDKPAFISFVFSDFTKNDIVQNYLYDRYLIDYENKLELNEGFKAIMYKNQFETFDSKLRKIFNNGLRDLQNGRDENLSQYGIVCKMNIKVKMYNGKLNAIVRECEPVPHSQISSIASPSQCEHLRLFYQRAFKRIGESAISRYFEEYRRFFPIHRNGSHLAKLRFDEVKHEPKKSPTTPALAEHIPDLNADVSSFDVKFTDISSLLDSSARLPRPQQTHKSNTLYSCEGRIIAIEYHASDLCFHITNELPLLQTRGLAPERVLQLHIITSKNFAYFFNRSSAYLQRQPLEEKYTQLAQFLGHSFKFNITSSLTLFPDTTVALQIWCPIECTFRELQQQLAHPKVAAAPDSGSLDCAINATVNPLRLLAAQNGVTVKKEEDNDDDAGAVPTS	–	–	stoichiometry N (SEC): 2
TGTGGGTGTGGTGTGGGTGTGG (ssDNA) [ssTel22]	–	binds	–
L-Tel22 (dsDNA) DNA 1: TTCAGACAACAGTAGACTACAAGGATGACGACAAGATTAAGCTTTCTTATGTGGGTGTGTGTGTGGGGTGGTGTGTGTGG DNA 2: ACACCCACATAAGAAAGCTTAATCTTGTCGTCATCCTTGTAGTCTACTGTTGTCTGAA	–	–	binding result (Cdc13 [2]): binds; binding result (Cdc13-OB234): binds
GTGTGGT (ssDNA) [ssTel7]	–	–	binding result (Cdc13 [3]): no binding
ds26 (dsDNA) DNA 1: ATAATGATAAGACGTAGAGTGGGTGT DNA 2: ACACCCACTCTACGTCTTATCATTAT	~300 nM	–	binding result (RPA): no binding
